In US20260028422A1 (CONCEPT TO MEDICINE BIOTECH, published 2026):
Each block holds one binder with its values, some of them ahead of it.

How the values were obtained:
[1] = target: T1, human MerTK expressed on cells (human, UniProt Q12866 21-999); assay: FACS on CHO-K1 cells overexpressing human MerTK, MFI (PE)
T1 construct: whole, on cells; also called CHO-K1-hMerTK; CHO-K1-MerTK
T1 sequence (looked up): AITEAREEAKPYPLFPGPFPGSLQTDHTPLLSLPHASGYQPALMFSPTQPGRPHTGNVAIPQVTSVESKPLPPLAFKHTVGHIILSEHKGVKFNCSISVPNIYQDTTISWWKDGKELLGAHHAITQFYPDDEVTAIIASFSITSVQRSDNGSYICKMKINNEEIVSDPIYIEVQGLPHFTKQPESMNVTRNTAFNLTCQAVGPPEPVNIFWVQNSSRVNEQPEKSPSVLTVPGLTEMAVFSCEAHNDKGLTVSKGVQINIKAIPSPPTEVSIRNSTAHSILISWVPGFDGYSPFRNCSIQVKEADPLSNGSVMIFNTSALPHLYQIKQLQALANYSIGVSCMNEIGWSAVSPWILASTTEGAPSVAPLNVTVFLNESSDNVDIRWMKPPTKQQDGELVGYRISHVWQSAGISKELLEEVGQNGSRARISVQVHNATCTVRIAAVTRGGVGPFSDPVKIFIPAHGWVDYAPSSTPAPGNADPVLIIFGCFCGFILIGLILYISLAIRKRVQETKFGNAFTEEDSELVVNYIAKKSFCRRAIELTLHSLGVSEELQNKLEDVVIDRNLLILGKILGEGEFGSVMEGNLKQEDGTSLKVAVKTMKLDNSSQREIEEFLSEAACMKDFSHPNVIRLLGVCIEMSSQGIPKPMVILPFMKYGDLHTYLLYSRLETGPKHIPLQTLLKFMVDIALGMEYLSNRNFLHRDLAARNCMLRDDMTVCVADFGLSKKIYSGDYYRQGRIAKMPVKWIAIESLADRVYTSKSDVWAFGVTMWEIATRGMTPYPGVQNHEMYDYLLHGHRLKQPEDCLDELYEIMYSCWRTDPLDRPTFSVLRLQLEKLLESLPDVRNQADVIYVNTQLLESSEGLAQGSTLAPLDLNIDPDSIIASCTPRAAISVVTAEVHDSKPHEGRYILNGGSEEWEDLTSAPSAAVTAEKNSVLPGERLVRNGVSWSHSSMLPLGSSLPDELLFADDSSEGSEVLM
Method: To evaluate the binding property to the antigen expressed on the cells, the chimeric monoclonal antibodies were analyzed for their binding to human MerTK overexpressed on CHO-K1 cells by FACS. Briefly, human MerTK overexpressing CHO-K1 (CHO-K1-MerTK) cells were firstly incubated with 5-fold serially diluted mAbs starting at 20 nM at 4° C. for 1 hour. After washing with FACS buffer, the PE conjugated anti-human IgG-Fc secondary antibody was added to each well and incubated at 4° C., for 30 mins. The mean fluorescence intensity (MFI) of PE were evaluated by QuantAnalyzer 16.
To evaluate the binding property to the antigen expressed on the cells, the humanized antibodies were analyzed by FACS as described before.

[2] = target: T1, human MerTK expressed on cells; assay: FACS on CHO-K1 cells overexpressing human MerTK, MFI (AF488)
human MerTK-his protein [3] = target: T2, human MerTK-his protein (human, UniProt Q12866 21-505); assay: ELISA, plate coated with human MerTK-his, anti-human IgG Fc-HRP, OD 450nm
T2 construct: extracellular domain; also called hMerTK-His; human MerTK protein
T2 sequence (looked up): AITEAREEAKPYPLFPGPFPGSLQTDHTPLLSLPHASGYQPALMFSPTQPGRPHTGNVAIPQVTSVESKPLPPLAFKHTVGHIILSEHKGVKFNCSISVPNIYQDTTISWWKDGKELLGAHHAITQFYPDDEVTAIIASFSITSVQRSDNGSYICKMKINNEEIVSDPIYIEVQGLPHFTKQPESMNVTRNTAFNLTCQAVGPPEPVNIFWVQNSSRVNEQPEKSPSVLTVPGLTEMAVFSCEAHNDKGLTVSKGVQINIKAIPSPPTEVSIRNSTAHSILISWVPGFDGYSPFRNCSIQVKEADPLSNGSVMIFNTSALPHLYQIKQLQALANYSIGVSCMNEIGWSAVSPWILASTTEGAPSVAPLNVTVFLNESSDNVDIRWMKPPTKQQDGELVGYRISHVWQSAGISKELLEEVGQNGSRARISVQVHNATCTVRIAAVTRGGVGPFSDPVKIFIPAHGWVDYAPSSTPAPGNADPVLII

human MerTK-his protein [4] = target: T2, human MerTK-his protein; assay: ELISA, plate coated with human MerTK-his, OD 450nm
Method: To evaluate the binding activity, the chimeric mAbs were subjected to ELISA test. Briefly, 96-well plates were coated with human or cyno MerTK-his protein at 2 μg/mL in PBS, 100 μL/well at 4° C. overnight, then blocked with 150 μL/well of 1% BSA. Five-fold dilutions of MerTK antibodies starting from 20 nM were added to each well and incubated for 1 hour at room temperature. The plates were washed with PBS/Tween-20 and then incubated with goat anti-human IgG Fe antibody conjugated with Horse Radish Peroxidase (HRP) for 30 minutes (mins) at room temperature. After washing, the plates were developed with TMB substrate and subsequent stop solution was added to complete the reaction. The signal from each well was read by spectrophotometer at OD 450 nm.
To evaluate the antigen binding activity, the humanized antibodies were subjected to ELISA test as described before.

[5] = target: T1, human MerTK expressed on cells; assay: FACS on CHO-K1 cells overexpressing human MerTK, MFI (AF488); remark: listed apart in the source

EC50 [1]: 0.23 nM
B1: 10F7D9 chimeric monoclonal antibody (antibody, V domains shown)
VH: QIQLVQSGPELKKPGETVKISCKASGYTFTNYGMNWVKQAPGKGLKWMGWINTYTGEPTYADDFKGRFAFSLETSASTAYLQINNLKNEDLATYFCATYGHYAWFAYWGQGTLVTVSA
VL: QIVLSQSPAILSASPGEKVTMTCRASSSVSYMHWYQQKSGSSPKPWIYATSNLASGVPARFSGSGSGTSYSLTISRVEAEDAATYFCQQWGTKPLTFGAGTKLELK

EC50 [2]: 1 nM
B2: 254B4D9 chimeric monoclonal antibody (antibody, V domains shown)
VH: QIQLVQSGPELKKPGETVKISCKASGYTFTAYGMSWVKQAPGKGLQWMGWINTYSGVPTYTDDFKGRFAFSLEASASTAFLQINNLKNEDTSTYFCARRAAVVAKYWYFDVWGTGTTVTVSS
VL: DIQMTQSPSSLFASLGGKVIITCKSSQDINKRISWYQHKPGKGPRLLIHSTSSLQPGIPLRFSGSGSGRDYSFSISNLEPEDIATYFCLQYDNLLTFGAGTKLELK

EC50 (human MerTK-his protein [3]): 0.027 nM
B3: h13B4.v16 benchmark antibody (antibody, V domains shown)
VH: EVQLVESGEGLVQPGGSLRLSCAASGFSLSSYAMGWVRQAPGKGLEYVGIINSYGNTYYANWAKGRFTISRDNSKNTVYLQMGSLRAEDMAVYYCARDPGVSSNLWGRGTLVTVSS
VL: DIQMTQSPSTLSASVGDRVTITCQASQNIYSGLAWYQQKPGKAPKLLIYGASKLASGVPSRFSGSGSGTEFTLTISSLQPDDFATYYCQATYYSSNSVAFGGGTKVEIK

EC50 (human MerTK-his protein [4]): 0.098 nM | EC50 [5]: 0.23 nM
B4: 265F11B5 chimeric monoclonal antibody (antibody, V domains shown)
VH: QVQLQQSGPELVKPGASVRLSCKASGYTFTTYDINWVKQRPGLGLEWIGWIYPRDGYTKYNEKFKGRATLAVDTSSSTAYMELHSLTSEDSAVYFCTRGYYDNLYYFDYWGQGTTLTVSS
VL: EIVLTQSPTTVAASPGEKITITCSASSIISSNYFHWYQQRPGFSPKLLIYRTSNLASGVPARFSGSGSGTSYSLTIGTMEAEDVATYYCQQGRSVPLTFGAGTKLELK
